We go through four compounds from US9707274B2, “Methods for preventing and treating post-traumatic stress disorder (PTSD)” (priority 2007, dated 2017).

Data set [1] concerns human brain muscarinic cholinergic receptor. The note with it: in vitro; cited from earlier work.
On the set-up of data set [2]: species or system rats. Conditions: rat, in vivo. The text has this: Incorporation of at least one vasoconstrictor in a nasal formulation including at least one therapeutic compound, i.e., a pharmaceutical composition, enhances intranasal therapeutic compounds targeting of therapeutics to, inter alia, the CNS, meninges and lymphatics by reducing absorption into the blood, increasing concentrations in, inter alia, the CNS, or both. […] Inclusion of a vasoconstrictor in the intranasal formulation (IN PHE) further enhances brain targeting of HC compared to the intravenous delivery from the previous study (Table 2, IN PHE vs. IV). In addition, compared to intranasal delivery with no additives, intranasal administration of HC in combination with 1% PHE further enhances intranasal drug targeting to the brain, with increased targeting to the olfactory bulbs (7-fold increase), anterior olfactory nucleus (2-fold increase), frontal cortex (2-fold increase), hippocampus (2-fold increase), and hypothalamus (2-fold increase) (Table 2, IN PHE vs. IN). 1% PHE also enhances intranasal drug targeting to the superficial and deep cervical lymph nodes (5 to 6-fold) and to the meninges surrounding the brain (2-fold). Therefore, inclusion of a vasoconstrictor in an intranasal formulation is a novel strategy to further enhance intranasal drug targeting to the brain and lymphatics compared to other routes of administration. […]

Data set [3] can be described thus: Data set 1: tissue and blood distribution of intranasal HC with and without 1% PHE (pretreatment intervals 0, 5, 15 min merged). In kind it is in vivo, rats. The text has this: We investigated whether incorporation of a vasoconstrictor (phenylephrine, PHE) in the nasal formulation enhances drug targeting of an intranasally applied neuropeptide (hypocretin-1, HC) to the brain in rodents. Several factors may effect CNS concentrations of HC following intranasal administration of HC in the presence of PHE, including the dose of vasoconstrictor, the time after intranasal delivery, and the pretreatment time interval. PHE is commonly used at a dose of 1% for nasal decongestion and topical nasal application of PHE results in a rapid onset of action and duration of action of approximately 4 hours. Ideally, it would be preferred to have a nasal formulation where the vasoconstrictor and CNS drug are administered together, without the need for pretreatment of the nasal cavity with vasoconstrictor. Clearly this would be more convenient than having to intranasally pretreat, wait a period of time (5 min or 15 min), and then intranasally administer the CNS drug with additional vasoconstrictor. However, waiting a short period of time may be a necessary step to allow the vasoconstrictor to activate adrenergic receptors located on blood vessels in the nasal cavity to result in constriction. Thus, in these experiments, three pretreatment time intervals were investigated: 0 min (or no pretreatment), 5 min, 15 min, to determine the time interval necessary to wait to allow the intranasally applied 1% PHE to take effect. Anesthetized rats were sacrificed at 30 minutes following intranasal delivery of HC and 1% PHE, since typically high brain concentrations are achieved within 25-30 minutes of intranasal administration.
One-way ANOVAs comparing tissue concentrations in the three groups from the PHE-treated animals were also performed. […] Thus, the therapeutic compound(s) and vasoconstrictor(s) may be combined in a pharmaceutical composition while retaining full therapeutic benefit of the present invention. […] As a result, data obtained from control animals with different pretreatment time intervals were merged and data obtained from PHE-treated animals with different pretreatment time intervals were merged. Statistical comparisons were made between tissue concentrations in control animals (n=28) and PHE-treated animals (n=23).

The conditions of data set [4]: rat, in vivo. The procedure:
Both vasoconstricting agents are α-adrenergic agonists with short duration of action (4-6 hours). The therapeutic compound selected was hypocretin-1 (HC, MW 3500), a peptide with therapeutic potential for treating narcolepsy. In addition to determining the effect of vasoconstrictors on the intranasal delivery of hypocretin-1 to the CNS, peripheral tissues and blood, vasoconstrictor effects on the drug targeting index (DTI) were also examined.
Thirty minutes following onset of intranasal delivery, rats were perfused with saline and fixed with 4% paraformaldehyde. […] The DTI for each tissue was calculated by dividing the ratio of mean tissue concentration to blood area under the curve (AUC) of the vasoconstrictor group by the ratio of mean tissue concentration to blood AUC of the control group. DTI>1.0 indicated a drug targeting advantage with the vasoconstrictor.

The next data set deals with α-adrenergic. Conditions: topical nasal application; cited from earlier work.
For data set [5] the following is noted: cited from earlier work.
Data set [6] relates to saliva and plasma cortisol response. The note with it: general intranasal insulin 40 IU, 26 normal adult men, placebo controlled; cited from earlier work.

No end group written: not given here.

For `O=P(O)(O)OP(=O)(O)O` [pyrophosphate], in data set [1], the “Concentration protecting the receptor from inactivation by oxidants such as heme” value was 1-5 μm.

For the compound “hypocretin-1 (QPLPDCCRQKTCSCRLYELLHGAGNHAAGILTL; ends and bridges not checked; also: 125I label, site not given here; UniProt O43612 34-66, looked up) [HC]”, the “HC drug targeting, enhancement to the meninges surrounding the brain” value in data set [2] turned out to be 2 fold. For the same compound, in data set [3] (intranasal HC + 1% PHE, rats, 30 min), the “Concentration of HC, Trigeminal Nerve” value is reported as 1.71 ± 0.15 nM. For the same compound, in data set [3] (intranasal HC control (no PHE), rats, 30 min), the “Concentration of HC, Medulla” value was 1.26 ± 0.22 nM. Besides, in data set [3] (rat, in vivo), the “HC targeting (tissue-to-blood ratio), 1% PHE vs control, trigeminal nerve” value was “not significantly different”; the “HC targeting (tissue-to-blood ratio), increase with 1% PHE vs control, anterior olfactory nucleus” value came out at 2.4 fold; the “HC targeting (tissue-to-blood ratio), increase with 1% PHE vs control, cerebellum” value was determined as 1.7 fold; the “HC targeting (tissue-to-blood ratio), increase with 1% PHE vs control, deep cervical lymph nodes” value stood at 5.7 fold. For the same compound, in data set [3] (rat, in vivo), the “HC targeting (tissue-to-blood ratio), increase with 1% PHE vs control, dorsal meninges” value is recorded as 1.7 fold; the “HC targeting (tissue-to-blood ratio), increase with 1% PHE vs control, frontal cortex” value is listed as 2.3 fold; the “HC targeting (tissue-to-blood ratio), increase with 1% PHE vs control, medulla” value is 1.7 fold; the “HC targeting (tissue-to-blood ratio), increase with 1% PHE vs control, midbrain” value was 1.7 fold. Further, in data set [3] (rat, in vivo), the “HC targeting (tissue-to-blood ratio), increase with 1% PHE vs control, olfactory bulbs” value is recorded as 6.8 fold; the “HC targeting (tissue-to-blood ratio), increase with 1% PHE vs control, superficial cervical lymph nodes” value stood at 5.7 fold; the “HC targeting (tissue-to-blood ratio), increase with 1% PHE vs control, ventral meninges” value came out at 2.9 fold. Besides, in data set [4], the “Respiration during intranasal delivery” value is reported as “did not lead to any improvement in respiration” and the “Respiratory distress in animals during intranasal delivery” value is “fewer incidences of respiratory distress”.

On to `CNC[C@H](O)c1cccc(O)c1` [PHE, phenylephrine], for which, in the data set with α-adrenergic, the Duration of action result is given as “approximately 4 hours”.

As for insulin, the “Memory, attention and functioning in Alzheimer's patients” value in data set [5] (intranasal insulin over a 21 day period) is “improve memory, attention and functioning”. Moreover, the “Blood levels of insulin or glucose” value in data set [5] (intranasal insulin treatment, healthy adults) was “no change”. Further, the “Memory in healthy adults” value in data set [5] (intranasal insulin treatment) is “improves memory”. The “Memory in patients with Alzheimer's disease” value in data set [5] (intranasal insulin, twenty minutes after a single treatment) was “improve memory”. In addition, the “Saliva and plasma cortisol response to the Trier Social Stress Test” value in data set [6] is “significantly diminished”.
